Here are results for 5 substances from article PMC2959088.

Chain of Oryzacystatin-1 (P09229 39-140): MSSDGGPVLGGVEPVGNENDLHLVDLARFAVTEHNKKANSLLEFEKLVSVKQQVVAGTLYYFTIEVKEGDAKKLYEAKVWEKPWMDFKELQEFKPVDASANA

One assay addresses human cathepsin L (human). Kind of assay: enzyme inhibition assay (residual activity on the fluorogenic substrate Z-Phe-Arg-MCA); cathepsin B or L (0.3 nM) incubated 5 min at 37°C with varied inhibitor in 100 mM sodium acetate pH 5.5, 2.5 mM DTT; substrate 0.01 mM; triplicate; Ki(app) by non linear regression (GraFit), Ki by Morrison's procedure.
In turn, Canecystatin-1 (natural protein) gave a Ki of 0.1 nM.

As for “Reverse Mutant 1 (T30I) (designed binder)”, the Ki amounted to 1.93 nM.

As to “Reverse Mutant 2 (Q97L) (designed binder)”, the Ki was 11.7 nM.

Consider “Reverse Mutant 3 (T30I, Q97L) (designed binder)”, for which the Ki was 12.5 nM.

A further assay concerns the target human cathepsin B (human). Described as above.
Canecystatin-1 (natural protein) returned a Ki of 87.6 nM.

As to “Oryzacystatin-1 (from UniProt P09229 39-140) (natural protein)”, the Ki was 78.5 nM.
